This is an account of results in article PMC9018529 (Molecular microbiology, 2022).

The data set deals with the molecule itself. Briefly: SEC.

B1: SymE (Escherichia coli MG1655), untagged after TEV cleavage of His6-TEV-SymE (natural protein, E. coli MG1655, UniProt P39394 1-113, looked up)
chain: MTDTHSIAQPFEAEVSPANNRHVTVGYASRYPDYSRIPAITLKGQWLEAAGFATGTAVDVKVMEGCIVLTAQPPAAEESELMQSLRQVCKLSARKQKQVQAFIGVIAGKQKVA
For B1, the “stoichiometry N” value was about 4.
